Biological target: the molecule itself
Experiment: gel filtration chromatography (self-association)

B1: simplified eukaryotic nitrate reductase (S-NaR1) (enzyme)
chain: MDSIVTEVTYGLEIKKIKDITELPFPVRQDSPLTEVLPTDLKTKDNFVARDPDLLRLTGSHPFNSEPPLTKLYDSGFLTPVSLHFVRNHGPVPYVPDENILDWEVSIEGMVETPYKIKLSDIMEQFDIYSTPVTMVCAGNRRKEQNMVKKGAGFNWGAAGTSTSLWTGCMLGDVIGKARPSKRARFVWMEGADNPANGAYRTCIRLSWCMDPERCIMIAYQQNGEWLHPDHGKPLRVVIPGVIGGRSVKWLKKLVVSDRPSENWYHYFDNRVLPTMVTPEMAKSDDRWWKDERYAIYDLNLQTIICKPENQQVIKISEDEYEIAGFGYNGGGVRIGRIEVSLDKGKSWKLADIDYPEDRYREAGYFRLFGGLVNVCDRMSCLCWCFWKLKVPLSELARSKDILIRGMDERMMVQPRTMYWNVTSMLNNWWYRVAIIREGESLRFEHPVVANKPGGWMDRVKAEGGDILEQKLISEEDLNSAVDHHHHHH
notes: Expressed in Pichia pastoris and purified by nickel IMAC; also called nitrate-reducing portion of Pichia angusta NAD(P)H: nitrate reductase
Q: Does B1 bind?
A: binds

From patent publication US20060211084A1 (TH NITRATE ELIMINATION, published 2006)
